In general, Kd refers to the free concentration of one partner at which half of the binding sites on the other are occupied at equilibrium, for simple one-to-one binding.

Some results are limits rather than exact numbers.

B1: scFv; the commonest letter at each place (parent)
chain 1: EVKLDETGGGLVQPGRPMKLSCVASGFTFSDYWMNWVRQSPEKGLEWVAQIRNKPYNYETYYSDSVKGRFTISRDDSKSSVYLQMNNLRVEDMGIYYCTGSYYGMDYWGQGTSVTVS
chain 2: DVVMTQTPLSLPVSLGDQASISCRSSQSLVHSNGNTYLRWYLQKPGQSPKVLIYKVSNRFSGVPDRFSGSGSGTDFTLKISRVEAEDLGVYFCSQSTHVPWTFGGGTKLEIK

Data set [1] covers variants of B1. Kind of data set: Kd (Tite-Seq). The settings on record: with fluorescein; format: scFv 4-4-20, heavy + light.
Variants of B1 are the subject of data set [2]. Kind of data set: yeast surface expression (ratio to wild type); higher = more expressed. The conditions noted are these: format: scFv 4-4-20, heavy + light.

As for chain 1 M105I D106Y, the dissociation constant Kd in data set [1] is not below 10 µM. For the same variant, the yeast surface expression in data set [2] came out at 0.4.
As to chain 1 M34C V37F, the dissociation constant Kd in data set [1] is not below 10 µM. Besides, the yeast surface expression in data set [2] is 0.777.
The corresponding values for chain 1 M34C V37I are 0.00708 µM and 0.76.
The corresponding values for chain 1 M34C V37H are not below 10 µM and 0.466.
Consider chain 1 M34C N35I, for which the Kd in data set [1] was not below 10 µM. Also, the yeast surface expression in data set [2] was 0.462.
The corresponding values for chain 1 M34F N35E are not below 10 µM and 0.811.
The corresponding values for chain 1 M34A V37I are 0.495 µM and 0.837.
Take chain 1 M105H G109T: the Kd in data set [1] was not below 10 µM. Besides, the yeast surface expression in data set [2] is 0.442.
The corresponding values for chain 1 M105F G109L are not below 10 µM and 0.369.
The corresponding values for chain 1 M34N N35H are 0.0154 µM and 1.84.
The corresponding values for chain 1 M34N N35V are not below 10 µM and 0.505.
As to chain 1 M105N Y107I, in data set [1], the Kd is not below 10 µM. Further, in data set [2], the yeast surface expression is 1.2.
For chain 1 M105C G109V, in data set [1], the dissociation constant Kd is not below 10 µM. For the same variant, in data set [2], the yeast surface expression came to 0.171.
Regarding chain 1 M34W W36T, in data set [1], the dissociation constant Kd is not below 10 µM. In addition, in data set [2], the yeast surface expression is 0.686.
As to chain 1 M34G V37R, the dissociation constant Kd in data set [1] was not below 10 µM. Besides, in data set [2], the yeast surface expression came out at 1.62.
The corresponding values for chain 1 M105F D106L are not below 10 µM and 0.356.
The corresponding values for chain 1 M105F D106C are not below 10 µM and 1.03.
The corresponding values for chain 1 M34P V37A are not below 10 µM and 0.897.
As to chain 1 M34P V37Q, the Kd in data set [1] is 2.23 µM. The yeast surface expression in data set [2] amounted to 2.03.
The corresponding values for chain 1 M34P V37L are not below 10 µM and 1.01.
The corresponding values for chain 1 M34P V37T are not below 10 µM and 0.323.
In the case of chain 1 M105D Y107D, the Kd in data set [1] is not below 10 µM. For the same variant, in data set [2], the yeast surface expression was 0.442.
For chain 1 M105P D106E, the dissociation constant Kd in data set [1] is not below 10 µM. In data set [2], the yeast surface expression worked out at 0.7.
The corresponding values for chain 1 M34L N35I are not below 10 µM and 0.531.
The corresponding values for chain 1 M34L N35P are not below 10 µM and 1.48.
In the case of chain 1 M34L N35T, the equilibrium dissociation constant (Kd) in data set [1] was not below 10 µM. In addition, the yeast surface expression in data set [2] worked out at 0.824.
The corresponding values for chain 1 M105Q Y107E W108T are 0.0162 µM and 0.548.
The corresponding values for chain 1 M34I W36M are 0.712 µM and 0.783.
Consider chain 1 M34I W36S, for which the Kd in data set [1] is not below 10 µM. The yeast surface expression in data set [2] was 0.556.
The corresponding values for chain 1 M34I W36F are 0.0107 µM and 0.811.
The corresponding values for chain 1 M34I W36Q are not below 10 µM and 0.283.
Turning to chain 1 M34I W36K, the Kd in data set [1] is not below 10 µM. The yeast surface expression in data set [2] turned out to be 0.24.
The corresponding values for chain 1 M105Q D106S are 0.0808 µM and 1.17.
In the case of chain 1 M105Q D106Q, in data set [1], the Kd is not below 10 µM. Moreover, the yeast surface expression in data set [2] was found to be 1.01.
Consider chain 1 M105P W108E G109W, for which the Kd in data set [1] is not below 10 µM. Besides, the yeast surface expression in data set [2] is 0.297.
The corresponding values for chain 1 M105V W108C are 6.61 µM and 0.461.
The corresponding values for chain 1 M105V W108D are not below 10 µM and 0.437.
Consider chain 1 M105V W108A, for which the Kd in data set [1] was not below 10 µM. Also, the yeast surface expression in data set [2] was 0.434.
Turning to chain 1 M105V W108H, the Kd in data set [1] was not below 10 µM. Moreover, the yeast surface expression in data set [2] stood at 0.493.
The corresponding values for chain 1 M34R W36P are not below 10 µM and 1.27.
Regarding chain 1 M34V V37D, in data set [1], the dissociation constant Kd is 3.74 µM. Moreover, the yeast surface expression in data set [2] stood at 0.584.
The corresponding values for chain 1 M34V V37K are not below 10 µM and 0.747.
The corresponding values for chain 1 M105K Y107T are 0.712 µM and 0.559.
With chain 1 M34D N35Q, the dissociation constant (Kd) in data set [1] is not below 10 µM. Also, the yeast surface expression in data set [2] was determined as 1.78.
The corresponding values for chain 1 M34N W36E are not below 10 µM and 0.587.
The corresponding values for chain 1 M34N W36Y are not below 10 µM and 0.542.
The corresponding values for chain 1 M34N W36A are not below 10 µM and 0.608.
Consider chain 1 M34T V37C, for which the Kd in data set [1] was 0.02 µM. Moreover, in data set [2], the yeast surface expression came to 0.697.
Consider chain 1 M105F Y107S G109S, for which the Kd in data set [1] is not below 10 µM. The yeast surface expression in data set [2] amounted to 0.81.
As for chain 1 M105D G109F, the Kd in data set [1] was not below 10 µM. Besides, in data set [2], the yeast surface expression came to 0.218.
With chain 1 M105F W108Y, the Kd in data set [1] is 0.0113 µM. For the same variant, the yeast surface expression in data set [2] was found to be 0.656.
The corresponding values for chain 1 M105F W108L are 0.00175 µM and 0.451.
The corresponding values for chain 1 M105L G109C are not below 10 µM and 0.26.
The corresponding values for chain 1 M105E Y107C are not below 10 µM and 0.847.
Take chain 1 M105D W108S: in data set [1], the equilibrium dissociation constant (Kd) was not below 10 µM. Further, the yeast surface expression in data set [2] came out at 0.458.
Turning to chain 1 M105D W108T, in data set [1], the Kd is not below 10 µM. In addition, the yeast surface expression in data set [2] was 0.455.
The corresponding values for chain 1 M105Q W108E are not below 10 µM and 0.438.
The corresponding values for chain 1 M105L Y107I are 2.34 µM and 1.09.
The corresponding values for chain 1 M105L Y107V are 1.72 µM and 1.08.
As to chain 1 M34G N35P, the dissociation constant (Kd) in data set [1] was 5.37 µM. Also, the yeast surface expression in data set [2] came to 0.778.
Consider chain 1 M34G N35H, for which, in data set [1], the equilibrium dissociation constant (Kd) is not below 10 µM. The yeast surface expression in data set [2] is 0.394.
The corresponding values for chain 1 M34G N35Q are not below 10 µM and 0.503.
The corresponding values for chain 1 M34F W36Y are 0.00468 µM and 0.948.
The corresponding values for chain 1 M34F W36M are 0.0562 µM and 0.872.
Turning to chain 1 M105E G109W, the Kd in data set [1] is not below 10 µM. In addition, the yeast surface expression in data set [2] is 0.278.
The corresponding values for chain 1 M34S W36Q are not below 10 µM and 0.147.
The corresponding values for chain 1 M34S W36A are not below 10 µM and 0.437.
The corresponding values for chain 1 M34S W36K are not below 10 µM and 0.646.
For chain 1 M105V G109I, the Kd in data set [1] is not below 10 µM. In addition, the yeast surface expression in data set [2] stood at 0.203.
The corresponding values for chain 1 M105V G109Y are not below 10 µM and 0.227.
chain 1 M34K: the Kd in data set [1] came to 0.694 µM. Besides, in data set [2], the yeast surface expression turned out to be 0.913.
The corresponding values for chain 1 M34Q are 9.5 µM and 0.801.
The corresponding values for chain 1 M34N are 2.28 µM and 0.695.
The corresponding values for chain 1 M34D are not below 10 µM and 0.406.
As to chain 1 M34P, the Kd in data set [1] is not below 10 µM. Moreover, the yeast surface expression in data set [2] is 0.508.
Consider chain 1 M34G, for which, in data set [1], the Kd amounted to 1.23 µM. In data set [2], the yeast surface expression is 0.682.
The corresponding values for chain 1 M34H are not below 10 µM and 0.737.
The corresponding values for chain 1 M34I are 0.00273 µM and 0.873.
The corresponding values for chain 1 M34L are 0.00142 µM and 0.971.
Consider chain 1 M34S, for which the dissociation constant Kd in data set [1] stood at 0.151 µM. The yeast surface expression in data set [2] was 0.652.
On to chain 1 M34V, for which, in data set [1], the Kd was found to be 0.00361 µM. Besides, in data set [2], the yeast surface expression was found to be 0.876.
The corresponding values for chain 1 M34T are 0.00293 µM and 0.777.
The corresponding values for chain 1 M34Y are 0.0107 µM and 1.05.
As for chain 1 M34F, the dissociation constant (Kd) in data set [1] turned out to be 0.00226 µM. Further, the yeast surface expression in data set [2] worked out at 0.988.
The corresponding values for chain 1 M34R are 9.5 µM and 0.851.
The corresponding values for chain 1 M34W are 0.0391 µM and 0.869.
Take chain 1 M34A: the Kd in data set [1] is 0.00826 µM. The yeast surface expression in data set [2] amounted to 0.783.
The corresponding values for chain 1 M34C are 0.00326 µM and 0.712.
The corresponding values for chain 1 M34E are not below 10 µM and 0.617.
The corresponding values for chain 1 M34P N35L are not below 10 µM and 0.779.
chain 1 M34P N35R: the Kd in data set [1] was not below 10 µM. Moreover, the yeast surface expression in data set [2] worked out at 1.16.
The corresponding values for chain 1 M34P N35Q are not below 10 µM and 0.194.
The corresponding values for chain 1 M34P N35D are not below 10 µM and 0.873.
The corresponding values for chain 1 M105T G109C are not below 10 µM and 0.27.
For chain 1 M105T G109V, the Kd in data set [1] was not below 10 µM. Besides, the yeast surface expression in data set [2] was found to be 0.216.
Regarding chain 1 M105T G109L, the Kd in data set [1] was not below 10 µM. Moreover, the yeast surface expression in data set [2] came out at 0.188.
The corresponding values for chain 1 M105K D106E are 3.2 µM and 1.01.
Regarding chain 1 M34G W36M, the Kd in data set [1] is not below 10 µM. Moreover, the yeast surface expression in data set [2] was 1.94.
Take chain 1 M34G W36A: the Kd in data set [1] was not below 10 µM. The yeast surface expression in data set [2] is 1.01.
The corresponding values for chain 1 M105G D106Q are not below 10 µM and 0.514.
The corresponding values for chain 1 M105G D106R are not below 10 µM and 0.434.
The corresponding values for chain 1 M34I N35Y V37Y are not below 10 µM and 0.45.
Regarding chain 1 M105E D106C, the Kd in data set [1] is not below 10 µM. Further, the yeast surface expression in data set [2] was 0.779.
Consider chain 1 M105E D106Y, for which the equilibrium dissociation constant (Kd) in data set [1] was not below 10 µM. The yeast surface expression in data set [2] amounted to 0.534.
With chain 1 M105A W108L, the equilibrium dissociation constant (Kd) in data set [1] is 0.00184 µM. Besides, the yeast surface expression in data set [2] stood at 0.505.
The corresponding values for chain 1 M105A W108Q are not below 10 µM and 0.38.
The corresponding values for chain 1 M34H N35P are not below 10 µM and 2.76.
The corresponding values for chain 1 M34H N35I are not below 10 µM and 0.552.
As to chain 1 M105G G109S, in data set [1], the dissociation constant Kd was not below 10 µM. The yeast surface expression in data set [2] was 0.794.
For chain 1 M105S Y107W, the Kd in data set [1] is not below 10 µM. For the same variant, the yeast surface expression in data set [2] came to 0.826.
Regarding chain 1 M34A N35I, the dissociation constant Kd in data set [1] was not below 10 µM. Further, the yeast surface expression in data set [2] came out at 0.267.
Regarding chain 1 M105P, the Kd in data set [1] is not below 10 µM. Further, the yeast surface expression in data set [2] was found to be 0.648.
The corresponding values for chain 1 M105S are not below 10 µM and 0.889.
For chain 1 M105N, the Kd in data set [1] turned out to be 0.0233 µM. Further, in data set [2], the yeast surface expression was found to be 0.844.
Consider chain 1 M105A, for which the Kd in data set [1] is not below 10 µM. Further, the yeast surface expression in data set [2] was 1.01.

Source of the values: the FLAb antibody collection (doi:10.7554/elife.23156).
